Experimental data reported in patent US10428159B2, “Blocking monoclonal antibodies to AGR2 and its receptor C4.4A” (Board of Regents, The University of Texas System, priority 2014, dated 2019).

B1: 162-1A-1: mouse monoclonal blocking antibody against C4.4A, IgG2b/kappa, VH SEQ ID NO: 10, VL SEQ ID NO: 11 (antibody, V domains shown)
VH: MNFGLSLIFLVLILKGVQCEVMLVESGGGLVKPGGSLKLSCAASGFTFSSYTMSWVRQTPEKRLEWVASISSGGGNTYYADSVKGRFTMSRDNAKNNLYLQMSSLRSEDTALYYCARSYYYGISYDTYWGQGTLVTVSA
VL: MKLPVRLLVLMFWIPASNSDVVMTQTPLSLPVSLGDQASISCRSSQNLVHSDGNTYLHWYLQKPGQSPKLLIYKVSNRFSGVPDRFSGSGSGTDFTLKISRVEAEDLGVYFCSQSTHVPYTFGGGTKLEIK
B2: rAGR2: human recombinant AGR2 protein (ab64013, AbCam) (protein)
chain: RDTTVKPGAKKDTKDSRPKLPQTLSRGWGDQLIWTQTYEEALYKSKTSNKPLMIIHHLDECPHSQALKKVFAENKEIQKLAEQFVLLNLVYETTDKHLSPDGQYVPRIMFVDPSLTVRADITGRYSNRLYAYEPADTALLLDNMKKALKLLKTEL

How the values were obtained:
AsPC-1 cells [1] = test: Apoptosis assay (Gem, rAGR2, antibodies); format: cell-based
Description: FIGS. 11A-D. Monoclonal antibodies developed bind respectively to AGR2 and C4.4A proteins and blocked their functions. From the endogenous lysate (SU86.86/Panc-1), AGR2 (18 kD) and C4.4A (50 kD) were identified by a panel of mAbs. […] Extra bands identified with the endogenous protein were re-confirmed with the recombinant protein. For apoptosis studies, AsPC-1 cells were treated without or with Gem (0.5 μM) and rAGR2 (100 nM) and with purified (A) AGR2 and (B) C4.4A Abs (1 μM). Commercially available Abs served as control. […] Horizontal line represents median apoptotic value. Data shown are mean±SE for 3 experiments (*p<0.05). (C,D) Binding assays were conducted with purified (C) AGR2 and (D) C4.4A Abs as selected from the apoptosis assay as having high blocking efficiency. ELISA assays were conducted by coating antigenic peptide (0.5 μg) and probed with respective purified Abs. Data shown are mean±SE for 3 experiments (*p <0.05). Based on high specificity and binding, clone 28B for AGR2 and 1A for C4.4A were selected. Purified Abs were also run on 4-20% gradient gel to check for the presence of heavy (50 kD) and light chains (25 kD).
(§1) Cell growth, migration, invasion and apoptosis assays. Wild-type and siRNA transfected PDAC cells were grown with rAGR2 (0-500 nM) in the presence and absence of antibodies (polyclonal commercial or newly developed mAbs) (1 μM). The medium was refreshed daily. […]

PDAC cell = test: Blocking of basal and AGR2-stimulated PDAC cell migration by antibodies; format: cell-based; settings: antibodies 1 μM, compared to non-specific antibody
Description: (§2) Cell growth, migration, invasion and apoptosis assays. Wild-type and siRNA transfected PDAC cells were grown with rAGR2 (0-500 nM) in the presence and absence of antibodies (polyclonal commercial or newly developed mAbs) (1 μM). The medium was refreshed daily. Cell numbers were estimated after 48 h by MTS assay as described previously (Ramachandran et al., 2007). In order to avoid the differences in basal values for each cell line, the data are presented as the percent of viable cells compared to the appropriate controls. Migration and invasion assays were conducted at 24 h as described previously (Ramachandran et al., 2007). Apoptosis assays were conducted 72 h after adding Gemcitabine (Gem) to Gem-sensitive BxPC-3 cells (1 μM) and Gem-resistant AsPC-1 cells (5 μM) (Arumugam et al., 2009) as described previously (Ramachandran et al., 2008). Because siRNA transfection itself induced basal apoptosis, cells transfected with siRNAs were treated with a lower concentration of Gem (BxPC3: 0.5 μM; AsPC-1: 1 μM).
Blocking monoclonal antibody development. Mouse monoclonal antibodies (mAbs) against AGR2 and C4.4A were developed in the Monoclonal Antibody Core of UT MDACC using unconjugated antigenic peptides. Several hybridoma colonies (2400 for each antibody) were screened for target recognition by ELISA using KLH-conjugated peptides. […]

Capan-2 cells [2] = test: Model 3 Capan-2 regression studies, orthotopic tumors; format: in vivo, athymic nude mice; settings: 15 mg/kg single mAb or 7.5 mg each in combination, twice a week i.p.
Description: Immunohistochemical (IHC) staining. […] Results were blindly evaluated by a pathologist and expression levels were categorized as positive or negative (cytoplasmic staining of >10% or <10% of the tumor cells, respectively) and staining intensity as strong, moderate, or no staining. Apoptotic cells were detected in paraffin sections by fluorescence-labeled TUNEL staining (Promega, Cat #G3250).
(§3) In vivo studies. In vivo experiments were conducted with athymic nude mice (B6.Cg-Foxn1^nu/J—female—age 9 weeks) (NCI, Bethesda, Md.) according to the UT MDACC regulatory standards and IUCAC committee approval. Orthotopic tumors were developed with luciferase-labeled cells (0.25×10^6). IgG (Cat #OB010701; Southern Biotech, Birmingham, Ala.) served as a control Ab.
Tumor growth and metastasis were measured weekly with the IVIS® live animal bioluminescence imaging system after injecting luciferin substrate (Xenogen, Alameda, Calif.). The number of mice surviving was recorded each week and shown as the percent of the original group size.

Capan-2 cells [3] = test: Model 2 Capan-2 stromal model, orthotopic tumors; format: in vivo, athymic nude mice
Description: as §3

BxPC-3 cells [4] = test: Apoptosis assay (Gem, rAGR2); format: cell-based; settings: BxPC-3, Gem 1 μM, AGR2 100 nM
Description: (§4) FIGS. 7A-D. Extracellular rAGR2-mediated functions. (A) Pancreatic cancer cells (BxPC-3 and MiaPaCa-2) were used for these studies. Extracellular addition of rAGR2 caused a significant dose-dependent increase in proliferation (BxPC-3-3-fold increase; MiaPaCa-2-4-fold increase; p<0.05). Pancreatic cancer cells were plated (2×10^4 cells) with and without rAGR2 (0-100 nM) on a Boyden's chamber for migration studies (B) and on an invasion chamber for invasion studies (C). After 22 h, cells were fixed with methanol and stained by hematoxylin, and cells in 10 random fields at 100× magnification were photographed and counted. Extracellular addition of rAGR2 caused a significant dose-dependent increase in migration (BxPC-3-7-fold increase; MiaPaCa-2-3-fold increase) and invasion (BxPC-3-10-fold increase; MiaPaCa-2-3-fold increase). (D) For analysis of apoptosis, BxPC-3 cells were treated with and without Gem (1 μM) and AGR2 (100 nM). […] Data shown are mean±SE for 3 experiments (*p<0.05 vs. control).
as §1, with “daily. Cell numbers were estimated after 48 h by MTS assay as described previously (Ramachandran et al., 2007).” for “daily.”

MiaPaCa-2 cells [5] = test: Migration (Boyden's chamber) with rAGR2; format: cell-based; settings: MiaPaCa-2, rAGR2 0-100 nM, 22 h
Description: as §4
as §1, with “daily. Cell numbers were estimated after 48 h by MTS assay as described previously (Ramachandran et al., 2007).” for “daily.”

BxPC-3 cells [6] = test: Migration (Boyden's chamber) with rAGR2; format: cell-based; settings: BxPC-3, rAGR2 0-100 nM, 22 h
Description: as §4
as §1, with “daily. Cell numbers were estimated after 48 h by MTS assay as described previously (Ramachandran et al., 2007).” for “daily.”

MiaPaCa-2 cells [7] = test: Cell proliferation with rAGR2; format: cell-based; settings: MiaPaCa-2, rAGR2 dose-dependent
Description: as §4
as §1, with “daily. Cell numbers were estimated after 48 h by MTS assay as described previously (Ramachandran et al., 2007).” for “daily.”

BxPC-3 cells [8] = test: Cell proliferation with rAGR2; format: cell-based; settings: BxPC-3, rAGR2 dose-dependent
Description: as §4
as §1, with “daily. Cell numbers were estimated after 48 h by MTS assay as described previously (Ramachandran et al., 2007).” for “daily.”

AsPC-1 cells [9] = test: Cell proliferation (MTS assay) with rAGR2; format: cell-based; settings: AsPC-1, rAGR2 0-500 nM, concentration-dependent
Description: as §2

AsPC-1 cells [10] = test: Invasion assay with rAGR2; format: cell-based; settings: AsPC-1, rAGR2 0-500 nM
Description: as §2

MiaPaCa-2 cells [11] = test: Invasion chamber assay with rAGR2; format: cell-based; settings: MiaPaCa-2, rAGR2 0-100 nM, 22 h
Description: as §4
as §1, with “daily. Cell numbers were estimated after 48 h by MTS assay as described previously (Ramachandran et al., 2007).” for “daily.”

BxPC-3 cells [12] = test: Invasion chamber assay with rAGR2; format: cell-based; settings: BxPC-3, rAGR2 0-100 nM, 22 h
Description: as §4
as §1, with “daily. Cell numbers were estimated after 48 h by MTS assay as described previously (Ramachandran et al., 2007).” for “daily.”

AsPC-1 cells [13] = test: Migration assay with rAGR2; format: cell-based; settings: AsPC-1, rAGR2 0-500 nM
Description: as §2

| Molecule | AGR2-mediated survival effects (Gem-induced apoptosis) (AsPC-1 cells [1]; AsPC-1, Gem, rAGR2 100 nM, Abs 1 μM) | basal and AGR2-mediated stimulation in migration (PDAC cell) | Median survival times (Capan-2 cells [2]) | Median survival (Capan-2 cells [3]; 15 mg/kg twice a week i.p.) | mice surviving (Capan-2 cells [3]; at nine weeks (seven weeks of treatment), when all control Ab mice had died, 15 mg/kg twice a week i.p.) | mice with complete tumor regression (Capan-2 cells [3]; bioluminescence imaging, confirmed by surgical examination) | reduction of tumor volume (Capan-2 cells [3]; compared to control Ab, bioluminescence) | mice surviving after week 63 (Capan-2 cells [3]; treatment stopped after 15 weeks, no evidence of tumor) | reduction of Gem induced apoptosis (BxPC-3 cells [4]) | increase in migration (MiaPaCa-2 cells [5]) | increase in migration (BxPC-3 cells [6]) | increase in proliferation (MiaPaCa-2 cells [7]) | increase in proliferation (BxPC-3 cells [8]) | reduction of the effect of Gem (apoptosis) (AsPC-1 cells [1]; AsPC-1, simultaneous rAGR2 with 5 μM Gem) | increased proliferation (AsPC-1 cells [9]) | increased invasion (AsPC-1 cells [10]) | increase in invasion (MiaPaCa-2 cells [11]) | increase in invasion (BxPC-3 cells [12]) | increased migration (AsPC-1 cells [13]) |
| --- | --- | --- | --- | --- | --- | --- | --- | --- | --- | --- | --- | --- | --- | --- | --- | --- | --- | --- | --- |
| B1 | abolished | abolished | 12 weeks | 10 weeks | 57% | 3/7 | 50% | one |  |  |  |  |  |  |  |  |  |  |  |
| B2 |  |  |  |  |  |  |  |  | 50% | 3 fold | 7 fold | 4 fold | 3 fold | > 50% | 3 fold | 3 fold | 3 fold | 10 fold | 10 fold |
